Measured values from patent US20190201496A1 (published 2019).
Like-named read-outs stand apart in the source and are kept apart here.

Columns and labels:
Test in all cases: SPR; pH 6
human β2-microglobulin [1] = molecular target: T1, human β2-microglobulin (UniProt P61769 21-119)
mβ2m = molecular target: mβ2m
human β2-microglobulin [2] = molecular target: T1, human β2-microglobulin; remark: listed apart in the source
HLA-A2:01 = molecular target: T2, HLA-A2:01 (human, UniProt A*02:01, biotinylated (site not stated))
T2 chain: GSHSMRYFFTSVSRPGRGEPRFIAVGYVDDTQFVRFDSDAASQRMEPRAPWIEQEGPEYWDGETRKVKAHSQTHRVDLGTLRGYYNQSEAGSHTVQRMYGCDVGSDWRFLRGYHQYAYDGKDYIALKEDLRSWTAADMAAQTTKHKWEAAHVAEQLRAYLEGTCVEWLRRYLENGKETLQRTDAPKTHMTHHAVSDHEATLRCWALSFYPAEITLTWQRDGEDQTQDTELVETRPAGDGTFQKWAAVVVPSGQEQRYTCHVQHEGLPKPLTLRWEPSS

T1 sequence (P61769 21-119): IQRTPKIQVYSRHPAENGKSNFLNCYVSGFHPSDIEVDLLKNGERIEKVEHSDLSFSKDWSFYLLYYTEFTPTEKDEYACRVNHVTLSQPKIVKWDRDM

B1: hAFP N-His (protein)
chain: RTLHRNEYGIASILDSYQCTAEISLADLATIFFAQFVQEATYKEVSKMVKDALTAIEKPTGDEQSSGCLENQLPAFLEELCHEKEILEKYGHSDCCSQSEEGRHNCFLAHKKPTPASIPLFQVPEPVTSCEAYEEDRETFMNKFIYEIARRHPFLYAPTILLWAARYDKIIPSCCKAENAVECFQTKAATVTKELRESSLLNQHACAVMKNFGTRTFQAITVTKLSQKFTKVNFTEIQKLVLDVAHVHEHCCRGDVLDCLQDGEKIMSYICSQQDTLSNKITECCKLTTLERGQCIIHAENDEKPEGLSPNLNRFLGDRDFNQFSSGEKNIFLASFVHEYSRRHPQLAVSVILRVAKGYQELLEKCFQTENPLECQDKGEEELQKYIQESQALAKRSCGLFQKLGEYYLQNAFLVAYTKKAPQLTSSELMAITRKMAATAATCCQLSEDKLLACGEGAADIIIGHLCIRHEMTPVNPGVGQCCTSSYANRRPCFSSLVVDETYVPPAFSDDKFIFHKDLCQAQGVALQTMKQEFLINLVKQKPQITEEQLEAVIADFSGLLEKCCQGQEQEVCFAEEGQKLISKTRAALGV
Human β2-microglobulin [1]
  Kd: 96.9 nM

B2: hAFP cord (ligand)
chain: B1 chain
mβ2m
  Kd: 167 nM

B3: human alpha-fetoprotein (AFP) (ligand)
chain: B1 chain
Human β2-microglobulin [2]
  Kd: 125 nM

B4: AFP (ligand)
chain: B1 chain
HLA-A2:01
  Kd: 35.9 nM

B5: human AFP derived from cord blood (ligand)
chain: B1 chain
Human β2-microglobulin [1]
  Kd: 193 nM
